This assay concerns the target T1, CYLD (UniProt Q9NQC7 1-956, limits assumed).
T1 construct: also called deubiquitinase CYLD; cylindromatosis
T1 sequence (looked up): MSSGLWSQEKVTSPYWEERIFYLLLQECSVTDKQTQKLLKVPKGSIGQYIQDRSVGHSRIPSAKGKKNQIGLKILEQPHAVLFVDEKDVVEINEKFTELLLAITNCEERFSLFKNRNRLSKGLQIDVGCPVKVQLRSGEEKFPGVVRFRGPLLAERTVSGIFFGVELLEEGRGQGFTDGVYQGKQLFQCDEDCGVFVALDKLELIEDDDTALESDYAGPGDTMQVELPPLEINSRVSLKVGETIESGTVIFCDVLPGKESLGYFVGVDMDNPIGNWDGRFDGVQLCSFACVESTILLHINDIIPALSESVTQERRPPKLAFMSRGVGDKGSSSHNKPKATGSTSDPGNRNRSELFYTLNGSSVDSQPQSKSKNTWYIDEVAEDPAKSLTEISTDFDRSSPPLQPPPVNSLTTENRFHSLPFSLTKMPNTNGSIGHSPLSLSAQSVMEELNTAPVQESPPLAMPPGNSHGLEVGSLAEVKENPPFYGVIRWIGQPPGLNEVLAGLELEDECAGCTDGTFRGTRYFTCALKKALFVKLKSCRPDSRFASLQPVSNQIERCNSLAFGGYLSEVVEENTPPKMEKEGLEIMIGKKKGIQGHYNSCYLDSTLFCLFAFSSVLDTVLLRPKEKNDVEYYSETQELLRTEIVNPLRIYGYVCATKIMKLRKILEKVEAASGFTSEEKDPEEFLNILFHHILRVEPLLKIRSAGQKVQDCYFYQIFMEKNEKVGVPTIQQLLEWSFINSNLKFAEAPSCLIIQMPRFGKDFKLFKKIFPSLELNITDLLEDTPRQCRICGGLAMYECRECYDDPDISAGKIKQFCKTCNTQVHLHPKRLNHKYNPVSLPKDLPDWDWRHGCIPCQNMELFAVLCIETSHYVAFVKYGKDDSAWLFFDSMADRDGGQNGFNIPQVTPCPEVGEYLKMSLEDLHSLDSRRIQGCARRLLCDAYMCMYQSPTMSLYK
The assay can be described thus: co-immunoprecipitation.

Procedure: Western blot, immunoprecipitation and ubiquitination experiments were performed as follows. Western blots were performed using whole-cell extracts, separated on 8 or 10% SDS-PAGE gels, and transferred to polyvinylidine di& uoride membranes. The membrane was blocked with a solution of PBS containing 0.1% Tween 20 (PBS-T) and 5% BSA. The membrane was then incubated in a 1:2,000 dilution of a primary antibody in 5% BSA-PBS-T. After three washes in PBS-T, the membrane was incubated with 1:5,000 dilution of the corresponding secondary antibody in 3% non-fact skim milk-PBS-T. Respective proteins were visualized by using enhanced chemiluminescence detection reagents, according to the manufacturer's instructions. To conduct immunoprecipitation analysis, cell lysates were incubated with 1 μg of primary antibodies overnight, at 4° C., followed by 2-h incubation with protein A/G-agarose beads (Invitrogen). Immunoprecipitates were then suspended in a sample buffer, separated on 8% SDS-PAGE, transferred to polyvinylidine difluoride membrane, and detected by immunoblot analysis, as described above. […]

B1: CHIP (enzyme, UniProt Q9UNE7 1-303, looked up)
chain: MKGKEEKEGGARLGAGGGSPEKSPSAQELKEQGNRLFVGRKYPEAAACYGRAITRNPLVAVYYTNRALCYLKMQQHEQALADCRRALELDGQSVKAHFFLGQCQLEMESYDEAIANLQRAYSLAKEQRLNFGDDIPSALRIAKKKRWNSIEERRIHQESELHSYLSRLIAAERERELEECQRNHEGDEDDSHVRAQQACIEAKHDKYMADMDELFSQVDEKRKKRDIPDYLCGKISFELMREPCITPSGITYDRKDIEEHLQRVGHFDPVTRSPLTQEQLIPNLAMKEVIDAFISENGWVEDY
Turning to B1, the binding result is listed as “no binding”.

For the origin of these results see patent US20150065561A1 (GEORGIA STATE UNIVERSITY RESEARCH FOUNDATION, published 2015).
